Assay [1] concerns the target T1, C113T109N biotin labeled HCV core peptide (hepatitis C virus, also: biotin labeled, position not given here).
T1 construct: also called C113T110N
T1 peptide: RGSRPSWGPND
In words: capture EIA; Ab 2000 ng/mL; bt-peptide 500 ng/mL.

The target of assay [2] is T2, C113WT biotin labeled HCV core peptide (hepatitis C virus, also: biotin labeled, position not given here).
T2 peptide: RGSRPSWGPTD
In words: capture EIA; Ab 2000 ng/mL; bt-peptide 500 ng/mL.

Assay [3] addresses T3, 92-133 biotin labeled HCV core peptide (hepatitis C virus, UniProt Q9WMX2 92-133, chain 1: biotin label (bt-pep). Its position and any spacer are not visible in the passages shown.).
T3 construct: Only the label 92-133 is printed
T3 peptide: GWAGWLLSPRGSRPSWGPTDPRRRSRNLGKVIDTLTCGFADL
In words: capture EIA; Ab 2000 ng/mL; bt-peptide 500 ng/mL.
Method: (§1) Assay wells were coated with sheep anti-mouse IgG Fc specific antibody and incubated overnight. The coating solution was then removed; the wells blocked using BSA/tween in PBS and then washed with dH2O. […] Next, biotin labeled peptides (diluted to 500 ng/mL in block) were added, the plates incubated for 10 minutes while shaking at 700 rpm and then washed. Peroxidase conjugated streptavidin (diluted to 200 ng/mL in block) was then added to all assay wells, incubated for 20 minutes while shaking at 700 rpm and then washed. Finally, color was developed using OPD and signal quenched using 1N H₂SO₄. Signal was read at 492 nm.

The target in assay [4] is T4, Mut6T110S biotin labeled HCV core peptide (hepatitis C virus, biotin labeled (position not given)). In words: capture EIA; Ab 2000 ng/mL; bt-peptide 500 ng/mL.
For assay [5], the target named is T5, Mut1T110N biotin labeled HCV core peptide (hepatitis C virus, biotin labeled (position not given)).
T5 peptide: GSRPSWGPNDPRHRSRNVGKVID
In words: capture EIA; Ab 2000 ng/mL; bt-peptide 500 ng/mL.

In the next assay the target is T6, HCV core peptide 51 (hepatitis C virus, HELM PEPTIDE1{[O=C1N[C@H]2[C@H](CS[C@H]2CCCCC(=O)[*:2])N1].S.G.S.G.R.G.S.R.P.S.W.G.P.T.D.P.R.R.R.[am]}$$$$V2.0; SMILES …).
T6 peptide: SGSGRGSRPSWGPTDPRRR
In words: peptide EIA, 2 ug/mL IgG (summary table).

The target in a further assay is T7, HCV core peptide 50 (hepatitis C virus, HELM PEPTIDE1{[O=C1N[C@H]2[C@H](CS[C@H]2CCCCC(=O)[*:2])N1].S.G.S.G.S.P.R.G.S.R.P.S.W.G.P.T.D.P.R.[am]}$$$$V2.0; SMILES …).
T7 construct: also called aa 99-113
T7 peptide: SGSGSPRGSRPSWGPTDPR
In words: peptide EIA, 2 ug/mL IgG (summary table).

The target in another assay is T8, HCV core peptide 49 (hepatitis C virus, HELM PEPTIDE1{[O=C1N[C@H]2[C@H](CS[C@H]2CCCCC(=O)[*:2])N1].S.G.S.G.L.L.S.P.R.G.S.R.P.S.W.G.P.T.D.[am]}$$$$V2.0; SMILES …).
T8 peptide: SGSGLLSPRGSRPSWGPTD
In words: peptide EIA, 2 ug/mL IgG (summary table).

For the next assay, the target named is T9, HCV core peptide 48 (hepatitis C virus, HELM PEPTIDE1{[O=C1N[C@H]2[C@H](CS[C@H]2CCCCC(=O)[*:2])N1].S.G.S.G.G.W.L.L.S.P.R.G.S.R.P.S.W.G.P.[am]}$$$$V2.0; SMILES …).
T9 construct: also called aa 95-109
T9 peptide: SGSGGWLLSPRGSRPSWGP
In words: peptide EIA, 2 ug/mL IgG (summary table).

Another assay has as its target T10, HCV core peptide 53 (hepatitis C virus, HELM PEPTIDE1{[O=C1N[C@H]2[C@H](CS[C@H]2CCCCC(=O)[*:2])N1].S.G.S.G.P.S.W.G.P.T.D.P.R.R.R.S.R.N.L.[am]}$$$$V2.0; SMILES …).
T10 peptide: SGSGPSWGPTDPRRRSRNL
In words: peptide EIA, 2 ug/mL IgG (summary table).

For another assay, the target named is T11, HCV core peptide 55 (hepatitis C virus, HELM PEPTIDE1{[O=C1N[C@H]2[C@H](CS[C@H]2CCCCC(=O)[*:2])N1].S.G.S.G.P.T.D.P.R.R.R.S.R.N.L.G.K.V.I.[am]}$$$$V2.0; SMILES …).
T11 construct: also called aa 109-123
T11 peptide: SGSGPTDPRRRSRNLGKVI
In words: peptide EIA, 2 ug/mL IgG (summary table).

Another assay concerns the target T12, HCV core peptide 54 (hepatitis C virus, HELM PEPTIDE1{[O=C1N[C@H]2[C@H](CS[C@H]2CCCCC(=O)[*:2])N1].S.G.S.G.W.G.P.T.D.P.R.R.R.S.R.N.L.G.K.[am]}$$$$V2.0; SMILES …).
T12 peptide: SGSGWGPTDPRRRSRNLGK
In words: peptide EIA, 2 ug/mL IgG (summary table).

The target in a further assay is T13, HCV core peptide 52 (hepatitis C virus, HELM PEPTIDE1{[O=C1N[C@H]2[C@H](CS[C@H]2CCCCC(=O)[*:2])N1].S.G.S.G.S.R.P.S.W.G.P.T.D.P.R.R.R.S.R.[am]}$$$$V2.0; SMILES …).
T13 peptide: SGSGSRPSWGPTDPRRRSR
In words: peptide EIA, 2 ug/mL IgG (summary table).

In assay [6] the target is T1, C113T109N biotin labeled HCV core …. In words: capture EIA; Ab 15.625 ng/mL; bt-peptide 500 ng/mL.
Method: as §1
Assay [7] deals with T2, C113WT biotin labeled HCV core peptide. In words: capture EIA; Ab 15.625 ng/mL; bt-peptide 500 ng/mL.
Method: as §1
For assay [8], the target named is T3, 92-133 biotin labeled HCV core peptide. In words: capture EIA; Ab 15.625 ng/mL; bt-peptide 500 ng/mL.
Method: as §1
The target of assay [9] is T14, WT1STHV biotin labeled HCV core peptide (hepatitis C virus, biotin labeled (position not given)).
T14 peptide: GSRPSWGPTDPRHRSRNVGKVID
In words: capture EIA; Ab 15.625 ng/mL; bt-peptide 500 ng/mL.

Assay [10] deals with T4, Mut6T110S biotin labeled HCV core …. In words: capture EIA; Ab 15.625 ng/mL; bt-peptide 500 ng/mL.
Method: as §1
Assay [11] has as its target T5, Mut1T110N biotin labeled HCV core …. In words: capture EIA; Ab 15.625 ng/mL; bt-peptide 500 ng/mL.
Method: as §1

These results are taken from patent publication US20190170753A1 (ICAHN SCHOOL OF MEDICINE AT MOUNT SINAI, published 2019).

Where no end group is shown, it is not given here.

Method for HCV core peptide 48: (§2) The coated plates were kept dry in a sealed foil pouch and stored at <10 degrees C. until ready for use. A peptide coated plate for each test antibody was blocked using 3% BSA in PBS with 0.5% Tween 20. The blocked plates were washed with distilled water and a 2 ug/mL solution of purified IgG from each test sample diluted in BSA block solution was added to each peptide coated well of the blocked plate and allowed to incubate at room temperature for at least one hour. Following incubation the plates were washed with distilled water. A 200 ng/mL solution of peroxidase labeled F(ab′)2 fragment goat anti-mouse IgG Fc fragment specific (Jackson Immunoresearch) in BSA block solution was added to all wells and incubated at room temperature for 30 minutes. The plates were washed with distilled water and o-phenylenediamine substrate was used as the chromagen to generate signal. Plates were read at 492 nm and the results were analyzed.
Method for HCV core peptide 49: as §2
Method for HCV core peptide 50: as §2
Method for HCV core peptide 51: as §2
Method for HCV core peptide 52: as §2
Method for HCV core peptide 53: as §2
Method for HCV core peptide 54: as §2
Method for HCV core peptide 55: as §2

B1: Neo4 mouse monoclonal antibody (antibody, V domains shown)
VH: QIQLKESGPAVIKPSQSLSLTCIVSGFSITSSVYCWQWIRQPPGKGLEWMGRICYDGSVDYSPSITSRGTISRDTSLNKVFFQLSSVTNEDTAMYYCSRENHIDYYDTTYPSFDVWGAGTTVTVSS
VL: DIVLTQSPASLIVSLGQRATISCRASKSVNEYGYTYMHWYQQKPGLPPKLLIYLASNLDSGVPARFSGSGSGTDFTLNIHPVEEEDAATYYCQHSRELPYTFGGGTKLEIKR
notes: Mouse hybridoma antibody, isotype IgG1, purified with Protein G; also called HCV Neo4
As for B1, the “signal at 492 nm” value in [1] turned out to be 0.059 A492; in [2] it was 0.0766 A492; in assay [3], 1.31 A492; in assay [4], 1.17 A492; in [5] it was 0.0882 A492; in [6], 0.0736 A492. For the same molecule, the “signal at 492 nm” value in assay [7] was 0.0697 A492; in assay [8] it was 0.806 A492; in [9], 1.42 A492; in assay [10], 0.25 A492; in assay [11], 0.0771 A492. Also, the “OD (A492 nm)” value is 0.96 OD with HCV core peptide 51; 1.03 OD with HCV core peptide 50; 0.05 OD with HCV core peptide 49; 0.04 OD with HCV core peptide 48; 0.96 OD with HCV core peptide 53; 0.97 OD with HCV core peptide 55. The “OD (A492 nm)” value with HCV core peptide 54 was 1.01 OD; with HCV core peptide 52, 0.93 OD.
